Data set [1] concerns the target AlIbpAΔC14 (Acholeplasma laidlawii). The data set can be described thus: SEC; Superdex 200 10/300, 0.5 ml min^−1, 1 mg ml^−1 protein, 100 μl injected; 50 mM NaCl, 50 mM KCl, 50 mM K2HPO4 pH 7.4; 30 °C; fractions as areas under the peaks; peaks also viewed by TEM.
The target of data set [2] is AlIbpAΔN25 (Acholeplasma laidlawii) (UniProt A9NFB2). Put plainly: SPR; BIAcore T200; His6-AlIbpA proteins immobilised on Ni2+-loaded NTA chip (FC2, about 2000 RU); His6-TnrA20 on FC1 as control, response difference FC2 − FC1; ADH 1.0 mg ml^−1 injected at 10 μl min^−1; 10 mM Na2HPO4, 150 mM NaCl, pH 7.4; KD calculated from the binding curve slopes.
Data set [3] addresses AlIbpASEPΔN25 (Acholeplasma laidlawii) (UniProt A9NFB2). The description is as above.
The target in data set [4] is AlIbpAΔC14 (Acholeplasma laidlawii). The data set is described as above.
Data set [5] has as its target full-length recombinant AlIbpA (small heat shock protein IbpA from Acholeplasma laidlawii), His6-tagged (Acholeplasma laidlawii) (UniProt A9NFB2). The description is as above.
For data set [6], the target named is AlIbpASEPΔN12 (Acholeplasma laidlawii) (UniProt A9NFB2). Described as above.
Data set [7] deals with AlIbpAN11N12 (Acholeplasma laidlawii) (UniProt A9NFB2). Described as above.
Data set [8] addresses AlIbpAΔN12 (Acholeplasma laidlawii) (UniProt A9NFB2). The description is as above.
The target in data set [9] is AlIbpAΔN25C14 (Acholeplasma laidlawii). The data set can be described thus: SEC; Superdex 200 10/300, 0.5 ml min^−1, 1 mg ml^−1 protein, 100 μl injected; 50 mM NaCl, 50 mM KCl, 50 mM K2HPO4 pH 7.4; 30 °C; fractions as areas under the peaks; peaks also viewed by TEM.
The target in data set [10] is AlIbpAΔN12C14 (Acholeplasma laidlawii). The description is as above.
Data set [11] deals with the molecule itself. The description is as above.
Data set [12] deals with the molecule itself. The data set is described as above. This is another data set of the same source.

Residue numbers refer to the chain shown, from its start. Names may count otherwise.

As to AlIbpAΔC14 (domain or fragment), in data set [1], the fraction of the protein in I peak of the elution profile turned out to be 7% and the fraction of the protein in II peak of the elution profile stood at 86%.
alcohol dehydrogenase (enzyme): the dissociation constant Kd (in general, the constant that tells how readily two partners part at equilibrium) in [2] was 2200 nM; in data set [3], 3200 nM; in data set [4], 700 nM; in data set [5] it was 1600 nM; in [6], 7200 nM; in data set [7], 500 nM. Further, the Kd in data set [8] is 3500 nM.
In [9], AlIbpAΔN25C14 (domain or fragment) yielded a fraction of the protein in I peak of the elution profile of 1% and a fraction of the protein in II peak of the elution profile of 50%.
In data set [10], AlIbpAΔN12C14 (domain or fragment) returned a fraction of the protein in I peak of the elution profile of 1% and a fraction of the protein in II peak of the elution profile of 86%.

B1: AlIbpAΔN25 (domain or fragment, Acholeplasma laidlawii, UniProt A9NFB2 26-137, looked up)
chain: TTSNLMRTDIKETQNGYSLSVELPGFKKEDVKVSLEDGYLTIEAHTSKNSETKDQATKYIRKERYEGTMKRSYYVGNLHLDEINGTFENGMLHIELPKETKKEPEKRYLELK
notes: AlIbpA of Acholeplasma laidlawii PG8 with 25 N-terminal amino acids removed (lacks both (W/F)(D/F)PF-like motifs); source: E. coli BL21(DE3), purified (Ni-NTA); not shown: His6, N-terminal, kept
Regarding B1, in data set [11], the “fraction of the protein in I peak of the elution profile” value was 77 ± 21.3% and the “fraction of the protein in II peak of the elution profile” value was found to be 12 ± 2.4%.

B2: AlIbpASEPΔN25 (domain or fragment, Acholeplasma laidlawii, UniProt A9NFB2 26-137, looked up)
chain: B1 chain with L109S, L111P
notes: AlIbpA of Acholeplasma laidlawii PG8 lacking 25 N-terminal amino acids and with LEL substituted by SEP (L134S, L136P); source: E. coli BL21(DE3), purified (Ni-NTA); not shown: His6, N-terminal, kept
B2: in data set [11], the “fraction of the protein in I peak of the elution profile” value was found to be 69 ± 15.5% and the “fraction of the protein in II peak of the elution profile” value came out at 23 ± 3.2%.

B3: full-length recombinant AlIbpA (small heat shock protein IbpA from Acholeplasma laidlawii), His6-tagged (natural protein, UniProt A9NFB2 1-137, looked up)
chain: MLSLLNKNRSFFDDFFEDFNVLNPVTTSNLMRTDIKETQNGYSLSVELPGFKKEDVKVSLEDGYLTIEAHTSKNSETKDQATKYIRKERYEGTMKRSYYVGNLHLDEINGTFENGMLHIELPKETKKEPEKRYLELK
notes: small heat shock protein IbpA (AlIbpA) of Acholeplasma laidlawii PG8, full length; Legends call it AlIbpA-His6, the methods say the His6 tag is N-terminal; In solution a mixture of about 24-mer globules, fibrils and agglomerates; also called AlIbpA-His6; His6-IbpA; source: E. coli BL21(DE3), purified (Ni-NTA); also in E. coli BL21 pET-IbpA cells, cross-linked in the cells, crude cell extract; not …
Consider B3, for which the stoichiometry N (as a rule, the number of molecules, sites or subunits per partner or assembly) in data set [12] was roughly 24. Also, in data set [11], the “fraction of the protein in I peak of the elution profile” value was 23 ± 10.3% and the “fraction of the protein in II peak of the elution profile” value is 74 ± 17.8%.

B4: AlIbpASEP (natural protein, Acholeplasma laidlawii, UniProt A9NFB2 1-137, looked up)
chain: B3 chain with L134S, L136P
notes: AlIbpA of Acholeplasma laidlawii PG8 with the C-terminal LEL motif substituted by SEP (L134 to S134, L136 to P136), length of the C-terminus kept; source: E. coli BL21(DE3), purified (Ni-NTA); not shown: His6, N-terminal, kept
For B4, in data set [11], the “fraction of the protein in I peak of the elution profile” value was found to be 18 ± 4.4% and the “fraction of the protein in II peak of the elution profile” value is 56 ± 7.8%.

B5: AlIbpAN11N12 (natural protein, Acholeplasma laidlawii, UniProt A9NFB2 1-137, looked up)
chain: B3 chain with F11N, F12N
notes: AlIbpA of Acholeplasma laidlawii PG8 with F11F12 substituted by N11N12, complete N-terminus length kept; source: E. coli BL21(DE3), purified (Ni-NTA); not shown: His6, N-terminal, kept
B5: the “stoichiometry N” value in data set [12] is roughly 24. For the same molecule, in data set [11], the “fraction of the protein in I peak of the elution profile” value turned out to be 8 ± 1.7% and the “fraction of the protein in II peak of the elution profile” value came out at 88 ± 12.2%.

B6: AlIbpAΔN12 (domain or fragment, Acholeplasma laidlawii, UniProt A9NFB2 13-137, looked up)
chain: DDFFEDFNVLNPVTTSNLMRTDIKETQNGYSLSVELPGFKKEDVKVSLEDGYLTIEAHTSKNSETKDQATKYIRKERYEGTMKRSYYVGNLHLDEINGTFENGMLHIELPKETKKEPEKRYLELK
notes: AlIbpA of Acholeplasma laidlawii PG8 lacking the first 12 amino acid residues; source: E. coli BL21(DE3), purified (Ni-NTA); not shown: His6, N-terminal, kept
In the case of B6, in data set [11], the “fraction of the protein in I peak of the elution profile” value was 88 ± 17.1% and the “fraction of the protein in II peak of the elution profile” value was determined as 10 ± 1.1%.

B7: AlIbpASEPΔN12 (domain or fragment, Acholeplasma laidlawii, UniProt A9NFB2 13-137, looked up)
chain: B6 chain with L122S, L124P
notes: AlIbpA of Acholeplasma laidlawii PG8 lacking 12 N-terminal amino acids and with LEL substituted by SEP (L134S, L136P); source: E. coli BL21(DE3), purified (Ni-NTA); not shown: His6, N-terminal, kept
For B7, in [11], the “fraction of the protein in I peak of the elution profile” value amounted to 2 ± 0.8% and the “fraction of the protein in II peak of the elution profile” value amounted to 59 ± 10.1%.

These data come from publication PMC9050003, “N- and C-terminal regions of the small heat shock protein IbpA from Acholeplasma laidlawii competitively govern its oligomerization pattern and chaperone-like activity†” (RSC Advances, 2020).
